From paper PMC9720079, “Identification and Characterization of a Bacteriocin from the Newly Isolated Bacillus subtilis HD15 with Inhibitory Effects against Bacillus cereus” (Journal of Microbiology and Biotechnology, 2022)
Ends that are not written are not given here.

Experiments:
lipase (E.C. 3.1.1.3) = assay: Effect of enzyme treatment on antimicrobial activity; type: in vitro ADME; conditions: 30 min
Protocol: (§1) To evaluate the pH stability of the antimicrobial substance, the buffers were prepared with 0.1 M glycine-HCl buffer (pH between 2 and 4), 0.1 M sodium acetate buffer (pH between 4 and 6), 0.1 M sodium phosphate buffer (pH between 6 and 8), and 0.1 M Tris-HCl buffer (pH between 8 and 10). The antimicrobial substance was mixed with buffer at a ratio of 1:15 and incubated at 37°C for 12 h, and relative antimicrobial activity was measured. To evaluate temperature stability, purified bacteriocin was incubated at 0°C, 20°C, 40°C, 60°C, 70°C, 80°C, or 90°C for 12 h, and at 100°C for 1 h. Relative antimicrobial activity was assessed using the agar well diffusion method, and the zone of inhibition was measured in millimeters. To assess the effect of various enzymes on antimicrobial activity, lysozyme (E.C. 3.2.1.17), α-amylase (E.C. 3.2.1.1), lipase (E.C. 3.1.1.3), protease (E.C. 3.4.24.31), and proteinase K (E.C. 3.4.21.64) (all from Sigma-Aldrich) and pronase E (E.C. 3.4.24.4; Merck Millipore, USA) were prepared in sodium phosphate buffer (pH 7.0) at a final concentration of 4 mg/ml. Purified bacteriocin was mixed with each enzyme at 2 mg/ml and incubated at 37°C for 30 min, and the relative antimicrobial activity was measured.

[1] = molecular target: T1, proteinase K (E.C. 3.4.21.64) (Parengyodontium album, UniProt P06873); assay: as above; type: in vitro ADME; conditions: 30 min; for effect of proteinase K treatment on antimicrobial activity: 2 mg/ml, pH 7.0, 37°C
T1 construct: purchased Sigma-Aldrich
Protocol: as §1

α-amylase (E.C. 3.2.1.1) = assay: as above; type: in vitro ADME; conditions: 2 mg/ml, pH 7.0, 37°C, 30 min
Protocol: as §1

gram-negative bacteria = assay: Inhibitory spectrum, well diffusion method, gram-negative bacteria as a group; type: cell-based
Protocol: (§2) Antimicrobial activity against several gram-positive and gram-negative bacteria was assessed using the agar well diffusion method, with some modifications. Cultures were incubated in tryptic soy medium at 37°C for 60 h. Cell-free supernatants were prepared by centrifugation (3,800 ×g, 4°C, 30 min) and used as an antagonistic substance. Each pathogen at 7.0 log CFU/ml was spread on a TSA plate. An 8-mm-diameter well was created using a cork borer on the agar plate, and 50 μl of the cell-free supernatant was added to the wells. The plates were left undisturbed for a few hours to allow the supernatant to diffuse into the agar and then cultured at 37°C for 18 h. The diameter of the resultant growth inhibition zone was measured as a measure of antimicrobial activity.

B. cereus = assay: Antimicrobial activity in arbitrary units, serial 2-fold dilutions, of purification steps; type: cell-based, Bacillus cereus
Protocol: The protein content in the bacteriocin solution was measured using the modified Lowry method. A 50 μl volume of bacteriocin was mixed with 550 μl of biuret reagent (0.75 mM cupric sulfate and 94 mM sodium hydroxide) and incubated for 10 min at 25°C. A 25 μl volume of Folin–Ciocalteu’s phenol reagent (Sigma-Aldrich, USA) was then added, followed by incubation for 30 min at 25°C. Absorbance was measured at 725 nm using a VersaMax ELISA Microplate Reader (Molecular Devices, USA), and a standard curve was constructed using bovine serum albumin (Sigma-Aldrich). Antimicrobial activity was measured as arbitrary units per milliliter of purified microbial culture using serial 2-fold dilutions of the antimicrobial substance. […] AU/mL was calculated by multiplying AU by the dilution factor.

[2] = pH stability of bacteriocin, relative antimicrobial activity; type: physicochemical; conditions: 12 h; for Relative activity (%): substance:buffer 1:15, 37°C, read-out agar well diffusion
Protocol: as §1

[3] = test system: Bacillus cereus KCCM 12667; assay: Agar well diffusion test of purified bacteriocin; type: cell-based; conditions: Fig. 3C
Protocol: as §2
The molecular weight of bacteriocin was determined by tricine sodium dodecyl sulfate-polyacrylamide gel electrophoresis (SDS-PAGE; Bio-Rad, USA) at 100 V for 5 h on a 20% polyacrylamide gel with an ultra-low-range molecular weight marker (1,060–26,600 Da; Sigma-Aldrich), followed by silver staining (Amersham Biosciences, Sweden). Direct detection was then performed to determine whether the protein bands corresponded to bacteriocin [23].

[4] = test system: Listeria monocytogenes ATCC 15313; assay: Inhibitory spectrum, well diffusion method; type: cell-based; conditions: for antimicrobial activity against L. monocytogenes: well diffusion method
Protocol: as §2

[5] = test system: Bacillus cereus KCCM 40152; assay: Inhibitory spectrum, well diffusion method; type: cell-based; conditions: for antimicrobial activity against B. cereus: well diffusion method
Protocol: as §2

[6] = test system: Staphylococcus aureus ATCC 25923; assay: Inhibitory spectrum, well diffusion method; type: cell-based; design: key to Antibacterial activity: +++: Greater than 15 mm; −: no inhibition zone
Protocol: as §2

[7] = test system: Vibrio vulnificus ATCC 29306; assay: Inhibitory spectrum, well diffusion method; type: cell-based; design: key: +++: Greater than 15 mm; −: no inhibition zone; conditions: inhibition zone class
Protocol: as §2

[8] = test system: Pseudomonas aeruginosa KCCM 12539; assay: Inhibitory spectrum, well diffusion method; type: cell-based; design: key: +++: Greater than 15 mm; −: no inhibition zone; conditions: inhibition zone class
Protocol: as §2

[9] = test system: Shigella sonnei KCCM 41282; assay: Inhibitory spectrum, well diffusion method; type: cell-based; design: key: +++: Greater than 15 mm; −: no inhibition zone; conditions: inhibition zone class
Protocol: as §2

[10] = test system: Salmonella enteritidis CCARM 8206; assay: Inhibitory spectrum, well diffusion method; type: cell-based; design: key: +++: Greater than 15 mm; −: no inhibition zone; conditions: inhibition zone class
Protocol: as §2

[11] = test system: Vibrio parahaemolyticus KCCM 11965; assay: Inhibitory spectrum, well diffusion method; type: cell-based; design: key: +++: Greater than 15 mm; −: no inhibition zone; conditions: inhibition zone class
Protocol: as §2

[12] = test system: Shigella flexneri KCCM 11937; assay: Inhibitory spectrum, well diffusion method; type: cell-based; design: key: +++: Greater than 15 mm; −: no inhibition zone; conditions: inhibition zone class
Protocol: as §2

[13] = test system: Salmonella choleraesuis KCCM 40736; assay: Inhibitory spectrum, well diffusion method; type: cell-based; design: key: +++: Greater than 15 mm; −: no inhibition zone; conditions: inhibition zone class
Protocol: as §2

[14] = test system: Cronobacter sakazakii KCTC2949; assay: Inhibitory spectrum, well diffusion method; type: cell-based; design: key: +++: Greater than 15 mm; −: no inhibition zone; conditions: inhibition zone class
Protocol: as §2

[15] = test system: Escherichia coli O157:H7 ATCC 43894; assay: Inhibitory spectrum, well diffusion method; type: cell-based; design: key: +++: Greater than 15 mm; −: no inhibition zone; conditions: inhibition zone class
Protocol: as §2

[16] = Temperature stability of bacteriocin, relative antimicrobial activity; type: physicochemical; conditions: for temperature range of stable activity: 12 h incubation; for Relative activity (%): 12 h, read-out agar well diffusion
Protocol: as §1

[17] = listed as purified protein from B. subtilis HD15
[18] = listed as B. subtilis HD15 bacteriocin
[19] = well diffusion, inhibition zone class

T1 sequence (P06873 106-384): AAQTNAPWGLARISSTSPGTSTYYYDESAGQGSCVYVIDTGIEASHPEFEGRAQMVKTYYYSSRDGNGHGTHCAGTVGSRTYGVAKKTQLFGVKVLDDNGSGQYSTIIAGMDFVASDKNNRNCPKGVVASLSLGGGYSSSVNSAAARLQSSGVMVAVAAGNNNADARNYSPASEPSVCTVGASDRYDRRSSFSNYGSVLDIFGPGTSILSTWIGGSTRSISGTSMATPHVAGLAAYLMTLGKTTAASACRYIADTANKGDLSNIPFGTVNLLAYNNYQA

SIGACLVDGPIPVIEG [bacteriocin from Bacillus subtilis HD15, 3.6 kDa bacteriocin related to subtilosin A, purified from B. subtilis HD15 culture by ammonium sulfate, DEAE-Sepharose and Sephacryl steps]
effect of lipase treatment on antibacterial activity (lipase (E.C. 3.1.1.3); 2 mg/ml, pH 7.0, 37°C): no effect
Relative activity (%) (lipase (E.C. 3.1.1.3); lipase 2 mg/ml, sodium phosphate buffer pH 7.0, 37°C, read-out relative antimicrobial activity): 100%
effect of proteinase K treatment on antimicrobial activity [1]: lost
effect of proteinase K treatment on antimicrobial activity [1, 17]: completely inhibited
Relative activity (%) ([1]; proteinase K 2 mg/ml, sodium phosphate buffer pH 7.0, 37°C, read-out relative antimicrobial activity): 0%
effect of amylase treatment on antibacterial activity (α-amylase (E.C. 3.2.1.1)): no effect
antimicrobial activity against gram-negative bacteria (gram-negative bacteria): no activity
Total activity (AU) (B. cereus; purification step from 500 ml culture, reciprocal of maximum 2-fold dilution giving a transparent zone, indicator strain not given): 10,500 AU
Specific activity (AU/mg) (B. cereus; total activity per total protein (modified Lowry) of purification step): 413.4 AU/mg
Relative activity (%) ([2]; pH 2, 0.1 M glycine-HCl buffer): 50%
Relative activity (%) ([2]; pH 3, 0.1 M glycine-HCl buffer): 80%
antimicrobial activity remaining ([2]; pH 3 to 9 as worded in text, 37°C): 80%
Relative activity (%) ([2]; pH 4, 0.1 M glycine-HCl or sodium acetate buffer): 95%
Relative activity (%) ([2]; pH 5, 0.1 M sodium acetate buffer): 100%
antimicrobial activity maintained ([2]; pH 5–7, 37°C): 100%
Relative activity (%) ([2]; pH 6, 0.1 M sodium acetate or sodium phosphate buffer): 100%
Relative activity (%) ([2]; pH 7, 0.1 M sodium phosphate buffer): 100%
Relative activity (%) ([2]; pH 8, 0.1 M sodium phosphate or Tris-HCl buffer): 95%
Relative activity (%) ([2]; pH 9, 0.1 M Tris-HCl buffer): 80%
Relative activity (%) ([2]; pH 10, 0.1 M Tris-HCl buffer): 30%
Antibacterial activity, zone around purified bacteriocin [3]: clear zone
antimicrobial activity against L. monocytogenes [4, 18]: strong inhibition
antimicrobial activity against L. monocytogenes [4, 17]: high antimicrobial activity
Antibacterial activity [4, 19]: +++ (Greater than 15 mm)
antimicrobial activity against B. cereus [5, 18]: strong inhibition
antimicrobial activity against B. cereus [5, 17]: high antimicrobial activity
Antibacterial activity [5, 19]: +++ (Greater than 15 mm)
antimicrobial activity against Staphylococcus aureus ([6]; well diffusion method): no activity
Antibacterial activity [6, 19]: −
Antibacterial activity [7]: −
Antibacterial activity [8]: −
Antibacterial activity [9]: −
Antibacterial activity [10]: −
Antibacterial activity [11]: −
Antibacterial activity [12]: −
Antibacterial activity [13]: −
Antibacterial activity [14]: −
Antibacterial activity [15]: −
antimicrobial activity after incubation ([16]; 0–50°C for 12 h): 100%
temperature range of stable activity [16]: up to 70 °C
temperature range of stable activity [16, 17]: 0–70 °C
activity remaining ([16]; after 12 h at 70°C and over a pH range between 3 and 9): more than 70%
Relative activity (%) ([16]; heat 50°C): 100%
Relative activity (%) ([16]; heat 60°C): 95%
Relative activity (%) ([16]; heat 70°C): 70%
Relative activity (%) ([16]; heat 80°C): 20%
Relative activity (%) ([16]; heat 90°C): 0%
